# Results: patent publication US6294648A, “Protein having proteinase inhibitor activity” (Bayer Corporation, priority 1999, dated 2001)
# pKi: −log10 of the molar value. Entries after “also recorded” stand apart in the source; their conditions may differ. Where two headings read alike, the source gives them in different places.
# Experiments:
# leukocyte elastase = biological target: T1, leukocyte elastase (Homo sapiens, UniProt P08246); conditions: cited from earlier work
# T1 sequence (P08246 30-267): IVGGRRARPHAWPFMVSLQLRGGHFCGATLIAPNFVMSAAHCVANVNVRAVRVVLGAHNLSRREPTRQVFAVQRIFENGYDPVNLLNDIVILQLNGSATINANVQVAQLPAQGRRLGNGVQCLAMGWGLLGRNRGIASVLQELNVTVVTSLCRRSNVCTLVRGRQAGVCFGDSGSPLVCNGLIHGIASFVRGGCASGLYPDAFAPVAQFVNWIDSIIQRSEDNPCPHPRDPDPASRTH
# thrombin = thrombin (Homo sapiens, UniProt P00734); conditions: cited from earlier work
# chymotrypsin = conditions: cited from earlier work; for pKi: read-out: Ki, chymotrypsin
# trypsin [1] = biological target: T2, trypsin (Bos taurus, UniProt P00760); conditions: cited from earlier work
# T2 construct: gene PRSS1
# T2 sequence (P00760 24-246): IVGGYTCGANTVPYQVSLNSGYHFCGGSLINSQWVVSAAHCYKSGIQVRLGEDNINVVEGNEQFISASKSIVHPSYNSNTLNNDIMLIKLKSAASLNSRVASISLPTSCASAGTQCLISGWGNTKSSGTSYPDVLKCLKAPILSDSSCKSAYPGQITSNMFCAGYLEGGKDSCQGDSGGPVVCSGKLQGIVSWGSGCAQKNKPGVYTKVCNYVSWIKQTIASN
# cathepsin G = biological target: T3, cathepsin G (Homo sapiens, UniProt P08311); conditions: cited from earlier work
# T3 sequence (P08311 21-255): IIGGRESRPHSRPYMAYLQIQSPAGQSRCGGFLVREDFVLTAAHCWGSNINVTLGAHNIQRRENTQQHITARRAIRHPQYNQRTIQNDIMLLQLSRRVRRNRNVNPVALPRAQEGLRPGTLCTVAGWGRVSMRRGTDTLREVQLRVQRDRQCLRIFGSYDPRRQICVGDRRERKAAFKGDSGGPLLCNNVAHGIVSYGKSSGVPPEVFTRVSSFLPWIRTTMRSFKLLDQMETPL
# [2] = tested on: neutrophil-induced ECM solubilization; conditions: cited from earlier work
# proteinase 3 = biological target: T4, proteinase 3 (Homo sapiens, UniProt P24158); conditions: cited from earlier work
# T4 sequence (P24158 28-256): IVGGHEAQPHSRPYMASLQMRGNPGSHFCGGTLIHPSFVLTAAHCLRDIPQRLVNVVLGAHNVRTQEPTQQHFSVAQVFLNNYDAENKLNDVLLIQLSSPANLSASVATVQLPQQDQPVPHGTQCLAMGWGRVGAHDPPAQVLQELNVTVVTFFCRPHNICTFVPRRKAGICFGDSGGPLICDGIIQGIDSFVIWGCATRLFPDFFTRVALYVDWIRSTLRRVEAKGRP
# [3] = biological target: T5, human neutrophil cathepsin G (Homo sapiens, UniProt P08311); assay: Determination of equilibrium dissociation constants, cathepsin G; type: biochemical
# T5 construct: purchased Athens Research and Technology, Inc. (Athens, Ga.)
# T5 sequence (P08311 21-255): T3 sequence (P08311 21-255)
# Description: (§1) The BTL.009 concentration was determined by amino acid analysis. The concentration of human neutrophil elastase, cathepsin G, and proteinase 3 were based on the manufacturer's specifications. […] Hydrolysis of AMC-conjugated peptides was monitored on a Hitachi model F4500 fluorometer (excitation=370 nm, emission=432 nm) over the first 2 minutes of the reaction. Ki* values were determined from plots of fractional rate versus inhibitor concentration, which were fit by nonlinear regression analysis (Enzifitter™ by Bio soft, Cambridge UK) as described (44). Ki values were obtained by correction for the effect of substrate as described (44).
# [4] = biological target: T6, human neutrophil elastase (Homo sapiens, UniProt P08246); assay: Determination of equilibrium dissociation constants, neutrophil elastase; type: biochemical
# T6 construct: purchased Athens Research and Technology, Inc. (Athens, Ga.)
# T6 sequence (P08246 30-267): T1 sequence (P08246 30-267)
# Description: as §1
# [5] = biological target: T7, human neutrophil proteinase 3 (Homo sapiens, UniProt P24158); assay: Determination of equilibrium dissociation constants, proteinase 3; type: biochemical
# T7 construct: purchased Athens Research and Technology, Inc. (Athens, Ga.)
# T7 sequence (P24158 28-256): T4 sequence (P24158 28-256)
# Description: as §1
# trypsin [6] = assay: Inhibitory activity of BTL.009 towards trypsin / trypsin-like proteinases; type: biochemical
# Bovine chymotrypsin = biological target: T8, Bovine chymotrypsin (Bos taurus, UniProt P00766); assay: Chymotrypsin assay to monitor protein folding; type: biochemical
# T8 construct: purchased Sigma (St. Louis, Mo.)
# Description: To identify the properly folded form from reverse phase purification, the inhibition of chymotrypsin was measured. Chymotrypsin (20 nM) was incubated with refolded BTL.009 reverse phase fractions (0.04 absorbance units at 280 nm) in 100 μl of 50 MM Hepes (pH 7.5), 0.15 M NaCl, 2.0 mM CaCl2, and 0.01% Triton X-100 (buffer A) at 37° C. After 30 minutes, Suc-AAPF-pNa (100 μM final concentration) was added, after which the residual enzymatic formation of pNa was monitored at 410 nm.
# plasma kallikrein = plasma kallikrein (Homo sapiens, UniProt P03952); conditions: cited from earlier work
# plasma kallikrein, sequence (P03952 20-638, species assumed): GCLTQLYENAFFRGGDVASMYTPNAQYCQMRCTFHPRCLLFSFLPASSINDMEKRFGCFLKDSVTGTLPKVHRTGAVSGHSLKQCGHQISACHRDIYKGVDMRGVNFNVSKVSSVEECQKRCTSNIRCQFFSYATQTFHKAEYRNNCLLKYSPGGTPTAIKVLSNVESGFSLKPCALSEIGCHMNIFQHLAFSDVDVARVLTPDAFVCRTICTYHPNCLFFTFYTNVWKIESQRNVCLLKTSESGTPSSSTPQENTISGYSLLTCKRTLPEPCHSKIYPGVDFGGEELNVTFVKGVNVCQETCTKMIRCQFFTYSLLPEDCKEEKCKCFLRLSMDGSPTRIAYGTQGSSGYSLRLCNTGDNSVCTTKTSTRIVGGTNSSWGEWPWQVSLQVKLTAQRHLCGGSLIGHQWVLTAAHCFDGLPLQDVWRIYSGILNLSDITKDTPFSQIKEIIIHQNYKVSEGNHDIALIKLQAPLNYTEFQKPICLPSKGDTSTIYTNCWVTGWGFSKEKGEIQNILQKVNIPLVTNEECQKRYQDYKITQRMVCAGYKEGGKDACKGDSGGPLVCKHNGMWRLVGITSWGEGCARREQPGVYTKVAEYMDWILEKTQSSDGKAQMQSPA
# platelets = conditions: cited from earlier work
# [7] = read-out: Ki, leukocyte elastase
substance,measurement,setting,value
alpha 1-proteinase inhibitor [Arg358]: alpha 1-proteinase inhibitor P1 variant,"inhibition of leukocyte elastase, in words",leukocyte elastase,not of leukocyte elastase
same,"inhibition of trypsin-like molecules such as thrombin, in words",thrombin,potent inhibitor
"double mutant hPSTI variant: hPSTI with P1 lysine to leucine and P'1 isoleucine to glutamate (DSLGREAKCYNELNGCTLEYDPVCGTDGNTYPNECVLCFENRKRQTSILIQKSGPC; UniProt P00995 24-79, looked up, variant K18L I19E)",pKi,leukocyte elastase; [7],10.43
same,pKi,chymotrypsin,10.62
"hPSTI: a member of the Kazal serine proteinase family (DSLGREAKCYNELNGCTKIYDPVCGTDGNTYPNECVLCFENRKRQTSILIQKSGPC; UniProt P00995 24-79, looked up)","inhibition of leukocyte elastase, in words",leukocyte elastase,completely inactive
same,"inhibition of trypsin, in words",trypsin [1],potent inhibitor
same,"inhibition of chymotrypsin, in words",chymotrypsin,completely inactive
Alpha 1-proteinase inhibitor: a serpin family serine proteinase inhibitor; major serum inhibitor of elastase and cathepsin G,"inhibition of cathepsin G, in words",cathepsin G,potent inhibitor
same,"inhibition of cathepsin G, in words",cathepsin G; listed as Alpha-1-proteinase,inhibit
same,inhibition of neutrophil-induced ECM solubilization,[2],completely or nearly completely inhibit
same,"inhibition of proteinase 3, in words",proteinase 3,inhibit
"single mutant hPSTI variant: hPSTI with P1 residue lysine substituted with leucine (DSLGREAKCYNELNGCTLIYDPVCGTDGNTYPNECVLCFENRKRQTSILIQKSGPC; UniProt P00995 24-79, looked up, variant K18L)",pKi,leukocyte elastase; [7],10.60
same,"inhibition of trypsin, in words",trypsin [1],inactive
same,pKi,chymotrypsin,8.10
alpha-2-macroglobulin: member of the serpin proteinase inhibitor family (as stated),"inhibition of leukocyte elastase, in words",leukocyte elastase,inhibit
same,"inhibition of cathepsin G, in words",cathepsin G,inhibit
same,"inhibition of proteinase 3, in words",proteinase 3,inhibit
"BTL.009: synthetic, refolded peptide corresponding to the EST-derived human Kunitz domain KQDVCEMPKETGPCLAYFLHWWYDKKDNTCSMFVYGGCQGNNNNFQSKANCLNTC (SEQ ID NO:1)","inhibition of cathepsin G, in words",[3],weak inhibitor
same,"inhibition of leukocyte elastase, in words",[4],strong inhibitor; also recorded: elastase inhibitor
same,"inhibition of proteinase 3, in words",[5],moderate inhibitor
same,inhibitory activity towards trypsin compared with neutrophil neutral serine proteinase,trypsin [6],significantly greater inhibitory activity towards a neutral serine proteinase secreted by neutrophils than towards trypsin
same,expected activity towards trypsin-like proteinases,"trypsin [6]; expected, not tested",little activity towards all trypsin-like proteinases
same,preference for chymotrypsin-like over trypsin-like proteases,Bovine chymotrypsin,inhibit preferentially chymotrypsin-like proteases over trypsin-like proteases
"APP KD variant (T11D, P13H, M17A, 118H, S19P and F34Y): phage display / consensus mutant APP KD differing at 6 key residues; plasma kallikrein inhibitor",pKi,plasma kallikrein,~10.82
same,increase in binding affinity to plasma kallikrein compared to wild-type APP KD,plasma kallikrein,"more than 10,000 fold"
"elafin: member of the mucous proteinase inhibitor family (AQEPVKGPVSTKPGSCPIILIRCAMLNPPNRCLKDTDCPGIKKCCEGSCGMACFVPQ; Elafin; UniProt P19957 61-117, looked up)",pKi,"leukocyte elastase; read-out: Ki, elastase",9.22
same,"inhibition of cathepsin G, in words",cathepsin G,not
same,"inhibition of proteinase 3, in words",proteinase 3,not proteinase 3
Thrombospondin 1: inactivates cathepsin G by binding near the enzyme's active site,"inhibition of cathepsin G, in words",cathepsin G,inactivates cathepsin G
same,cathepsin G-mediated platelet aggregation,platelets,blocked
aprotinin,"inhibition of leukocyte elastase, in words",leukocyte elastase,does not inhibit
same,pKi,trypsin [1],10.70
same,pKi,chymotrypsin,8.89
Tannin,"inhibition of leukocyte elastase, in words",leukocyte elastase,specifically inhibits leukocyte elastase in an irreversible manner
"TFPI: Tissue factor pathway inhibitor, another member of the Kunitz family",pKi,leukocyte elastase; [7],6.40
same,pKi,cathepsin G,6.70 to 7.00
same,pKi,chymotrypsin,9.12
